# T1: SpCID1 (Schizosaccharomyces pombe, UniProt O13833)
# T1 sequence (O13833 1-405): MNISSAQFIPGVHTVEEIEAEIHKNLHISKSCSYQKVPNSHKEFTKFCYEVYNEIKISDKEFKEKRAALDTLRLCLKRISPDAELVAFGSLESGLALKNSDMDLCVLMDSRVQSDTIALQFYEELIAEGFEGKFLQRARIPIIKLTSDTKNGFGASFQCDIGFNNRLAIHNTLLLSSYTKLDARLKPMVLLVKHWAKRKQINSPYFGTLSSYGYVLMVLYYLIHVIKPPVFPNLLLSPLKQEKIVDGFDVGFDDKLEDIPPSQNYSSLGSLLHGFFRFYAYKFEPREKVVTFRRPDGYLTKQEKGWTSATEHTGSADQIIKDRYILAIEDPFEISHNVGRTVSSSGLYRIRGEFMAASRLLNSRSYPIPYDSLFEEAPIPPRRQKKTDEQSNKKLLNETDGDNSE
# T2: SpCID1 (caffeine-induced death suppressor 1, terminal uridylyl transferase) (Schizosaccharomyces pombe, UniProt O13833 1-405)
# T2 sequence: T1 sequence (O13833 1-405)
# Experiments:
# SpCID1 = biological target: T1, SpCID1; experiment: fluorescence titration; format: binding
# [1] = biological target: T2, SpCID1 (caffeine-induced death …); experiment: EMSA
# [2] = biological target: T2, SpCID1 (caffeine-induced death …); experiment: fluorescence titration
molecule,measurement,setting,value
"O=c1[nH]c(=O)n([C@@H]2O[C@H](COP(=O)(O)OP(=O)(O)OP(=O)(O)O)[C@@H](O)[C@H]2O)cc1-c1cc2ccccc2o1 [compound 2, BFUTP]",Kd,SpCID1,180 ± 40 nM
"UUACCAUAGAAUCAUGUGCCAUACAUCAU (ssRNA, 3'-terminal U (position 29) is 5-benzofuran-uridine (BFU)) [3BFU]",Kd,[1],~5400 nM
"UUACCAUAGAAUCAUGUGCCAUACAUCAU (ssRNA, 3'-terminal U (position 29) is 5-benzofuran-uridine (BFU)) [4BFU]",Kd,[2],520 ± 40 nM
